B1: Hammerhead Ribozyme (parent)
chain: ACCGGAUGUGCUUUCCGGUCUGAUGAGUCCGUGAGGACGAAACAG

Variants of: B1
Experiment: self-cleavage, relative activity (ratio to wild type); higher = more cleavage; co-transcriptional

Variant	self-cleavage
U9A U14C	0.73
U19G A37U	0.339
G22A C30A	0.392
U7G C15U	1.26
G18C G31U	0.673
U14G G25A	0.315
C16U U19G	0.359
G27A G33C	0.675
C20A C30A	0.286
U7C A23G	0.454
C2U C30A	0.893
U14A U19A	0.304
U12A A23U	0.317
G10A G17A	0.81
U14C U28A	0.501
C3U U12G	0.843
C3U U12A	1.04
U12C A44U	0.725
G17U U24G	0.704
U32G A40U	0.39
G4U G18C	0.275
C30G A40G	0.305
U21G A37G	0.454
U21G A44G	0.697

Variant	self-cleavage
A34C G39C	0.32
U21G G45C	0.278
G8A G27A	0.874
C29A G39A	0.356
U7G A41G	0.408
G22U G39A	0.35
G22A G45U	0.383
U19C U32C	0.565
U13A A40U	0.379
C3U C16A	0.476
A1C C2U	2.17
C29A C30G	0.372
C2A U32A	0.784
U12G C15A	1.09
G8U C16U	1.27
C30G C43G	0.267
C30G C43A	0.287
C16U G25U	0.356
G27A C29U	0.598
U12C U28G	0.543
U12C U28C	1.35
U14G C15G	0.771
C15A G31A	1.05
U28A A41G	0.398

Variant	self-cleavage
U7G A26G	0.289
A1U C15G	0.355
C3G G39A	0.31
C3G G39C	0.288
G18A C43A	0.299
U12A U19A	0.419
G18A G39C	0.326
A6G G33C	0.597
U12G G25U	0.315
U9G G25C	0.383
C2U C16G	0.356
C20G U24A	0.399
U21C A41G	0.297
G35U C38G	0.374
G17A U24G	0.592
A1C U21G	0.337
U19C A44G	0.751
U7A U32G	1.07
A23G G33U	0.458
C2A G18A	0.883
G8A U14A	0.866
C2A G4C	0.346
C2A C3G	0.277
U7A C38G	0.431

Variant	self-cleavage
A23C C30G	0.354
C15U A41U	0.352
G25A G27A	0.306
A1C G8U	0.465
A37C C43U	0.392
C16A G17U	0.325
G35C G36U	0.401
G10C U12C	1.26
U19C A37U	0.437
U32C C43A	0.315
G36C C43G	0.286
G36U A37G	0.479
A6G U19G	0.264
U14A C20G	0.346
U14G U28C	0.602
G10C C11A	1.11
U14C A42U	0.423
G31C G36U	0.562
G10U U21G	0.578
C2U G22U	0.376
C11A A44U	0.666
A1G U7C	1.39
C3G C20U	0.26
A40C A44C	0.396

Variant	self-cleavage
G25C A42C	0.293
C2U U9G	0.659
G5A G18C	0.386
U12G G27U	0.411
U12G G27A	0.914
G31A A42G	0.298
G18A C20G	0.367
G5C U14C	0.429
G5C U14A	0.845
U12A A40C	0.556
U14A U28C	0.923
C15A G35A	0.453
A6U G33C	0.551
A6C G35U	0.744
C15G A26C	0.321
C2G G35A	0.271
G4U G17A	0.316
C11G U12G	1.17
C15G C16U	0.58
C15G C16A	0.367
A37G A40C	0.407
U32G C38U	0.559
U7C G31U	1.1
G22U U24C	0.348

Variant	self-cleavage
A1G G27A	1.07
G10U G27C	0.861
C11A G31C	1.12
G10U G45U	0.926
U9A G33C	0.808
C29G C38G	0.424
G10A G25A	0.365
U14A A44C	0.414
C16G G45U	0.467
G17U A34U	0.531
C3A U21G	0.358
C3A A26U	0.399
U28G A41G	0.421
U12G C30A	0.795
U12G C30U	0.983
G18A G33C	0.635
A1U G4A	0.342
A1G U21C	0.949
G8C U21G	0.432
A26G A40C	0.399
U24A G45C	0.639
U9C G27U	0.505
A6U G35U	0.499
G25A A37G	0.351

Variant	self-cleavage
A1U A6U	0.46
U9C G45U	0.591
U9C G45A	0.78
C2G C11A	0.378
U14C	0.932
C29A A42U	0.374
G4C G18C	0.251
U7G A37G	0.928
G27A A44G	1.07
U12G A40C	0.366
U19A U28A	0.368
G25A A42G	0.242
A23U A41U	0.307
G8C U19A	0.295
G4A U19A	0.353
A26G C43G	0.31
C2U C15U	0.76
U19C G45C	0.519
G4A G17A	0.337
C3G A26C	0.268
G8A C29U	0.966
C15G U28C	0.528
A6U U12G	0.447
U24C G33A	1.36

Variant	self-cleavage
C3A C43U	0.378
A1U G18A	0.477
U14A G39C	0.276
C3A G25A	0.298
G4C A40U	0.255
U19G C38A	0.324
G27C A42U	0.313
G33U C43A	0.466
A6G C38A	0.454
U12A A26C	0.429
G4U G31U	0.75
G25A G39C	0.305
G17C U24A	0.493
A1U C43G	0.448
A1U C43U	0.413
U24G C29G	0.781
G33C A42U	0.28
U19G A41C	0.327
A23U G25A	0.267
G4A G10A	0.866
U24A C38U	0.993
U14G U21A	0.741
C30U G36C	0.667
C20U C29G	0.378

Variant	self-cleavage
G27U C29A	0.312
G5A C38U	0.935
U32A G33A	0.961
U9C G10U	0.795
C3U G17U	0.866
C15U G45C	0.646
C15G G45C	0.379
C15G U24G	0.574
C29U A40G	0.389
A6C G18U	0.428
U7C G17C	0.314
G10A U21A	0.588
U21G G35A	0.28
U32A A42C	0.315
C2A U21G	0.291
G27A C38U	0.965
U7G G10U	1.46
U14G C38G	0.603
U14G C38A	0.435
C2G A34G	0.279
U12C U32C	1.05
C3A C11U	0.358
C16A U21C	0.276
U28A G36U	0.438

Variant	self-cleavage
U9G G18A	0.393
C11U A37G	1.12
A23G A34C	0.338
A1C G31C	0.503
A6G C20A	0.4
U14G A41C	0.34
U9A U12C	0.947
G33U G35U	0.914
C2G G39A	0.342
C20A A26U	0.342
C3G U13G	0.628
A1U U14G	0.692
G4A A26C	0.302
G31U A42C	0.363
U12G A41U	0.298
C3U G33C	0.957
A6C A44G	1.06
G10C G35U	0.818
U21G A23C	0.36
A1U A41U	0.377
A40C A41G	0.307
G4A G18U	0.323
G10U G35A	0.838
G4C G36C	0.247

Variant	self-cleavage
G5U A6U	0.63
G17C G27A	0.446
C20A A37G	0.441
C2U C20U	0.797
U21C G33C	0.756
U12A G45U	0.67
U12C A23U	0.321
U7C A34C	1.16
G25A A40C	0.368
A1C G27A	0.332
G4A U12A	0.589
U14A C43A	0.333
G8U U14A	1.15
U12A G22C	0.236
C2U G5C	0.364
C15G G36A	0.417
A23G U28G	0.386
A23G U28C	0.327
A6U C43A	0.326
U12G U14G	0.961
G22A A23U	0.343
G10A A40G	0.346
G4A C30G	0.368
U32C G33C	1.15

Variant	self-cleavage
A40C G45C	0.399
A1G G5A	1.04
U7G G27C	0.763
C16U C38A	0.73
G4C U14G	0.733
A1G U24G	1.68
G5C G18A	0.293
A34U A44G	1.01
G18C U21G	0.285
C43G A44C	0.464
C43G A44G	0.934
C15G G22C	0.331
U21A G39C	0.32
A34C A37U	0.444
G33U A34C	0.895
G33A C38A	0.608
A26G U28C	0.383
G22A U28C	0.294
U7A G35C	0.707
U9C G18C	0.47
G5U U7A	0.87
A6U G27A	0.614
U14C C16G	0.722
C15A U24C	0.892

Variant	self-cleavage
C15A U24A	0.875
G22A A41G	0.365
G8C G22U	0.341
G5C U9G	0.467
A6G G22C	0.284
U7A G31C	1.28
U21G A41G	0.29
G17C A42U	0.284
G35A G36U	0.427
G10U A42C	0.45
G17U C30G	0.59
C2A A34G	0.48
C16A G25A	0.347
G17C G45C	0.4
U19C A23G	0.369
U13G G31C	0.943
G31A G36A	0.603
C2U U28C	0.79
U13C C16A	1.05
U19G U21G	0.328
G17A G33U	0.751
A6U A40C	0.268
A6U A40G	0.317
U12C C16U	0.878

Variant	self-cleavage
G8C C29U	0.758
U13G G39C	0.396
G31A G35A	1.05
U13C U28A	0.739
G10C A23C	0.538
U32G G36U	0.398
U7A G10C	1.34
U21A A41U	0.325
G17C G31C	0.563
C20G G25U	0.313
C20A U21G	0.326
G4A G27C	0.297
G8A G39U	0.369
C16G G35A	0.459
A6U A44U	0.36
U24A G39A	0.382
C38A A42G	0.263
C3U G36U	0.491
G8A C11A	1.28
C20A A34U	0.413
C16U U24A	0.747
C11A U19G	0.392

Reference: the RNAGym collection of RNA variant scans (doi:10.7554/elife.80360)
